Data published in patent publication US20080008648A1.

Target: human IL13 (human) (UniProt P35225)
Test: cell-based or functional assay

human IL13 (human), sequence (P35225 35-146 limits assumed): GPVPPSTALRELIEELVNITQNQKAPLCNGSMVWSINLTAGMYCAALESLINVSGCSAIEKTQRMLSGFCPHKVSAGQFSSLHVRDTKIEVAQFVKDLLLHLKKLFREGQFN

anti-IL13 mAb JES10-5A2 (BD Biosciences-Pharmingen) (antibody)
inhibition of IL13-suppressed CD14 expression on human monocytes (complete inhibition): > 80 nM
